Target: AtGAPC1 C149S mutant (Arabidopsis thaliana)
Assay: dynamic light scattering

stoichiometry N: 4
Substance: AtGAPC1 C149S mutant (enzyme)

— article doi:10.1101/545921
